Sequences and labels used below:
B1: Hammerhead Ribozyme (parent)
chain: ACCGGAUGUGCUUUCCGGUCUGAUGAGUCCGUGAGGACGAAACAG

Variants of B1 are the subject of this data set. As to the kind of experiment: self-cleavage, relative activity (ratio to wild type); higher = more cleavage; co-transcriptional.
Take C30G G31C: the self-cleavage stood at 0.926. To C20G belongs 0.341; to C20A, 0.541; to G5U U28G, 0.376. Turning to G4C C38G, the self-cleavage stood at 0.346. On to G33A C43U, for which the self-cleavage worked out at 0.816.

With A34U C43A, the self-cleavage was 0.393. Regarding A6G U7A, the self-cleavage came out at 1.09. Turning to G27A C43U, the self-cleavage amounted to 0.33. In the case of G25A G33U, the self-cleavage came to 0.45. In the case of G4A C15A, the self-cleavage worked out at 0.443. As to U28A U32A, the self-cleavage came out at 0.824. U9C G17U: the self-cleavage turned out to be 0.897. For G27A A44G the value was 1.07; for G10C U32A, 1.09; for G22U G36C, 0.363. In the case of C16U C29A, the self-cleavage came to 0.586. For A26G G27A, the self-cleavage stood at 0.27. A6C G27U: the self-cleavage was 0.38. Take U24A C30A: the self-cleavage was 0.928.

Consider C15U G35C, for which the self-cleavage was 0.601.

On to G8C U12A, for which the self-cleavage was 1.01. For the variant U14A A34U, the self-cleavage turned out to be 0.903. Consider G27C G39A, for which the self-cleavage amounted to 0.302. Regarding A34G G35U, the self-cleavage stood at 0.847. As to G4C U14G, the self-cleavage came out at 0.733. Regarding G27C G35U, the self-cleavage is 0.402. To U13C A34C belongs 1.02. In the case of G5A G17U, the self-cleavage came to 0.452. On to G35C G39A, for which the self-cleavage was 0.31. Turning to U7A A44U, the self-cleavage came out at 0.375. Turning to C3G C29G, the self-cleavage stood at 0.345. In the case of C16U U28A, the self-cleavage was 0.576. As for G4U C29U, the self-cleavage stood at 0.413. Regarding A1C A41U, the self-cleavage was found to be 0.341.

Regarding U19C G45U, the self-cleavage was 0.439. For A6U A37U, the self-cleavage worked out at 0.451. Turning to G8C U19C, the self-cleavage stood at 0.544.

G8C U19G: the self-cleavage was 0.428. With U14G G39C, the self-cleavage stood at 0.41. Consider G5C C30U, for which the self-cleavage amounted to 0.539.

G4C G10C: the self-cleavage was determined as 0.436.

Regarding A26G C43A, the self-cleavage is 0.325. As to U9G G36A, the self-cleavage is 0.57. To G17A A23C belongs 0.325. On to C2U A41C, for which the self-cleavage turned out to be 0.35. On to G10C G17A, for which the self-cleavage is 0.926. For G17U U32G the value was 0.73; for U7G G10U, 1.46; for U9A U13C, 1.37. As for U21A G27U, the self-cleavage stood at 0.294. Take G5A A26G: the self-cleavage was 0.398. For A23G C38G the value was 0.311; for G33A G36C, 0.58; for U32C G39A, 0.317. For G18U G39C the value was 0.32. As for U14A A37C, the self-cleavage amounted to 0.815.

As for G17U G31C, the self-cleavage was determined as 0.86. As for A26U G31A, the self-cleavage is 0.738. With C20U A44G, the self-cleavage is 0.962. As for U7G G45C, the self-cleavage amounted to 0.441. As for U21C C38U, the self-cleavage is 0.629. In the case of A41G, the self-cleavage was 0.345. On to C16U C43G, for which the self-cleavage was 0.352. To G17U G45A belongs 0.436. In the case of G4A G17C, the self-cleavage amounted to 0.399. To C15A G45C belongs 0.44; to G4A G45C, 0.393. Take A34C A42C: the self-cleavage came to 0.397. For G27A G36C, the self-cleavage was 0.316. With G18A A42C, the self-cleavage turned out to be 0.376. For the variant A37C C38U, the self-cleavage worked out at 0.546. Take G4U G39A: the self-cleavage was 0.263. Turning to G36A A40U, the self-cleavage amounted to 0.384. To G17C A23C belongs 0.327; to U32G G35C, 0.626; to G25A U32G, 0.419.

With A23U A40C, the self-cleavage was 0.348. Regarding U14G A26U, the self-cleavage was 0.569. In the case of A26U U28C, the self-cleavage was 0.646. For the variant G5C U24A, the self-cleavage turned out to be 0.648. Take C2A A42C: the self-cleavage stood at 0.355.

Consider U9A A42U, for which the self-cleavage is 0.332. Take C20U G45U: the self-cleavage worked out at 0.387. To C15A U24A belongs 0.875; to U13A A42C, 0.314; to G18C C20G, 0.34. To G5U G31A belongs 1.25. For U9A U28C the value was 0.98. As for C3U U32A, the self-cleavage was 0.95. Take C20A C38G: the self-cleavage stood at 0.429. As for C3G G33C, the self-cleavage turned out to be 0.468.

As to C3G G33A, the self-cleavage amounted to 0.577.

As to C3U C43G, the self-cleavage is 0.385. Regarding G10A C38G, the self-cleavage is 0.751. Take G22C G27C: the self-cleavage was 0.311. In the case of U19C G39A, the self-cleavage is 0.282. Take U19C G39U: the self-cleavage came out at 0.271. For the variant G4U A26G, the self-cleavage is 0.274. On to U7G, for which the self-cleavage was 1.37. U19G A41C: the self-cleavage came out at 0.327. Turning to G33C G35U, the self-cleavage worked out at 0.795.

As to U7G U9C, the self-cleavage was found to be 1.18.

In the case of G5A U19C, the self-cleavage was 0.565.

Consider G10A U12G, for which the self-cleavage came out at 1.51. On to A34G C38A, for which the self-cleavage turned out to be 0.349.

As to U14A A26G, the self-cleavage is 0.343. In the case of G4A C38A, the self-cleavage came to 0.373. Regarding U14G A42G, the self-cleavage was 0.381.

In the case of A42C G45U, the self-cleavage turned out to be 0.421. Regarding G27U A34C, the self-cleavage amounted to 0.32.

Regarding G4A A42G, the self-cleavage was determined as 0.341. For G18A G39U the value was 0.303; for U21A A40U, 0.338; for A23U A26G, 0.304. With U21C G31A, the self-cleavage was 0.974. C20A A34G: the self-cleavage was found to be 0.341. In the case of G18C A42G, the self-cleavage came to 0.372.

Consider U32G G39C, for which the self-cleavage worked out at 0.497.

Consider U13G U24C, for which the self-cleavage turned out to be 0.83. Regarding U14C G36A, the self-cleavage came to 0.552. With C29G U32G, the self-cleavage was determined as 0.553.

Regarding C20G A42G, the self-cleavage was 0.324. With A23G G25U, the self-cleavage worked out at 0.321.

Consider C3G G31A, for which the self-cleavage was 0.636. Turning to C16G C43G, the self-cleavage is 0.265.

Regarding U7A U13A, the self-cleavage came to 1.42. In the case of A23C A40C, the self-cleavage was determined as 0.31.

As to U21G C38A, the self-cleavage was determined as 0.388. G36U A44C: the self-cleavage was found to be 0.339. With G25A A44C, the self-cleavage was determined as 0.38. Turning to U14G C15U, the self-cleavage was determined as 0.581. For A34G G36C, the self-cleavage worked out at 0.276. Take A26C G45U: the self-cleavage was 0.45.

As to C3G C43U, the self-cleavage stood at 0.272. Regarding A1C G17C, the self-cleavage was 0.391.

On to U9C C20U, for which the self-cleavage was found to be 0.504.

Consider G31A C38A, for which the self-cleavage was 0.766. For G39A C43A, the self-cleavage was 0.284.

Consider G39A C43U, for which the self-cleavage stood at 0.341.

With G10A C43A, the self-cleavage was found to be 0.295. To U13C C29U belongs 0.819. Take G10U C38G: the self-cleavage turned out to be 0.848. As to G33U C43A, the self-cleavage came out at 0.466. Take U9G G17C: the self-cleavage is 0.32.

Consider A37G A40U, for which the self-cleavage amounted to 0.399. As for G8U C16U, the self-cleavage turned out to be 1.27. For U7C C43A, the self-cleavage stood at 0.309. Consider C43A G45C, for which the self-cleavage was found to be 0.441. As for C16G A42C, the self-cleavage worked out at 0.334. U13A U24C: the self-cleavage came out at 1.07. For G8A C43U, the self-cleavage came to 0.381. As for G17U G36C, the self-cleavage amounted to 0.336. With C2U G33U, the self-cleavage was found to be 1.17.

For the variant G35A A44C, the self-cleavage was 0.42. To A1U A42G belongs 0.351; to U21A G33C, 0.584; to U24C G25A, 0.363.

A42U A44G: the self-cleavage is 1.37. On to U7C U24C, for which the self-cleavage amounted to 1.24. Turning to A1G G5C, the self-cleavage was determined as 0.628. To C15G C16A belongs 0.367; to U32A A40G, 0.312.

With C2G C29U, the self-cleavage is 0.365. For G18A U28G the value was 0.542. In the case of G5A A42G, the self-cleavage came to 0.387.

U14G G35C: the self-cleavage is 0.509.

The values are drawn from the RNAGym collection of RNA variant scans (doi:10.7554/elife.80360).
